The results in this text go back to paper PMC3531269.

The target of test [1] is HIV-1 HXB2 Env (gp120/gp41) expressed on the surface of CHO-WT cells (HIV-1 HXB2) (UniProt P04578).
Test [2] deals with N-peptide N36 (aa 546-581 of HIV-1 HXB2 gp41 NHR) (HIV-1 HXB2) (UniProt P04578). Nature of the test: ELISA.

pIC50: −log10 of the molar value.

In test [1], “2DLT (bivalent recombinant protein: D1D2 domain of CD4 linked to T1144 by a 35-mer linker) (designed binder)” registered an IC50 of HIV-1 replication, Bal (B, R5) of 10.8 nM; an IC50 of HIV-1 replication, IIIB (B, X4) of 5.64 nM; an IC50 of HIV-1 replication, primary isolate 92TH009 (E/A, R5) of 17.5 nM; an IC50 of HIV-1 replication, primary isolate 92US657 (B, R5) of 17.2 nM. In test [1], this substance displayed an IC50 of HIV-1 replication, primary isolate 93 MW959 (C, R5) of 18.9 nM; an IC90 of HIV-1 replication, Bal (B, R5) of 44.4 nM; an IC90 of HIV-1 replication, IIIB (B, X4) of 28.8 nM; an IC90 of HIV-1 replication, primary isolate 92TH009 (E/A, R5) of 71.9 nM. In test [1], this substance came in with an IC90 of HIV-1 replication, primary isolate 92US657 (B, R5) of 51.9 nM and an IC90 of HIV-1 replication, primary isolate 93 MW959 (C, R5) of 48.9 nM. For the same substance, the pIC50 in test [2] was 6.30.

Take “T1144 (C-peptide, next generation HIV fusion inhibitor)”: in test [1], the IC50 of HIV-1 replication, Bal (B, R5) turned out to be 4.03 nM; the IC50 of HIV-1 replication, IIIB (B, X4) came to 2.13 nM; the IC50 of HIV-1 replication, primary isolate 92TH009 (E/A, R5) came to 1.36 nM; the IC50 of HIV-1 replication, primary isolate 92US657 (B, R5) was 13.2 nM. In test [1], this substance yielded an IC50 of HIV-1 replication, primary isolate 93 MW959 (C, R5) of 2.35 nM; an IC90 of HIV-1 replication, Bal (B, R5) of 28.1 nM; an IC90 of HIV-1 replication, IIIB (B, X4) of 35.2 nM; an IC90 of HIV-1 replication, primary isolate 92TH009 (E/A, R5) of 6.21 nM. In test [1], this substance returned an IC90 of HIV-1 replication, primary isolate 92US657 (B, R5) of 42.3 nM and an IC90 of HIV-1 replication, primary isolate 93 MW959 (C, R5) of 16.2 nM.
